# In paper PMC7615931 (Science (New York, N.Y.), 2024):
# How the values were obtained:
# [1] = target: the molecule itself; experiment: cryo-EM structure
# [2] = target: the molecule itself; experiment: negative-staining EM
protein,measurement,setting,value
"β-arrestin 2 (βarr2), wild-type, full-length (natural protein, UniProt P32120 1-420, looked up) MGEKPGTRVFKKSSPNCKLTVYLGKRDFVDHLDKVDPVDGVVLVDPDYLKDRKVFVTLTCAFRYGREDLDVLGLSFRKDLFIANYQAFPPTPNPPRPPTRLQERLLRKLGQHAHPFFFTIPQNLPCSVTLQPGPEDTGKACGVDFEIRAFCAKSLEEKSHKRNSVRLVIRKVQFAPEKPGPQPSAETTRHFLMSDRSLHLEASLDKELYYHGEPLNVNVHVTNNSTKTVKKIKVSVRQYADICLFSTAQYKCPVAQVEQDDQVSPSSTFCKVYTITPLLSNNREKRGLALDGKLKHEDTNLASSTIVKEGANKEVLGILVSYRVKVKLVVSRGGDVSVELPFVLMHPKPHDHIALPRPQSAATHPPTLLPSAVPETDAPVDTNLIEFETNYATDDDIVFEDFARLRLKGLKDEDYDDQFC",stoichiometry N,[1],2
same,stoichiometry N,[2],3
